{"source": "paper PMC8240452", "target": "SARS-CoV-2 spike receptor-binding domain (RBD) (SARS-CoV-2, UniProt P0DTC2 319-541)", "assay": "40 min incubation, immobilized aptamer"}
{"binder": "SARS-CoV-2 RBD aptamer, amine-terminated (ssDNA, 5'-NH2-(CH2)6) DNA: CAGCACCGACCTTGTGCTTTGGGAGTGCTGGTCCAAGGGCGTTAATGGACA", "values": [{"measurement": "Kd", "value": 3.4, "unit": "nM"}]}
